Data as given in paper PMC9482650, “Quantitative fragmentomics allow affinity mapping of interactomes” (Nature Communications, 2022).

Experiments:
Experiment in all cases: holdup assay
Parameters in all cases: key: below the threshold = too weak to quantify, mostly under pKd 3.1 to 4
[1] = biological target: T1, APBA1_1, Q02410
T1 sequence (Q02410 651-752, limits assumed, looked up): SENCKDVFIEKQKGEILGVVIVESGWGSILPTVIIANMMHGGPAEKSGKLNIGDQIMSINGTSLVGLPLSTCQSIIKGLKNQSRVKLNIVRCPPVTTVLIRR

[2] = biological target: CASK, O14936
[3] = biological target: DLG1_3, Q12959
[4] = biological target: T2, DLG3_3, Q92796
T2 sequence (Q92796 374-475, limits assumed, looked up): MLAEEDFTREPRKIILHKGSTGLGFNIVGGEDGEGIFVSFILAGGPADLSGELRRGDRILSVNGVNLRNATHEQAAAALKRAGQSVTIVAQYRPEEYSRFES

[5] = biological target: FRMPD2_1, Q68DX3
[6] = biological target: FRMPD3, Q5JV73
[7] = biological target: T3, GRIP1_4, Q9Y3R0
T3 sequence (Q9Y3R0 467-571, limits assumed, looked up): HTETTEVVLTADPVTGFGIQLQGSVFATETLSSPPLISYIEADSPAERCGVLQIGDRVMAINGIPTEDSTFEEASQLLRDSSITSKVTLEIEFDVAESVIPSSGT

[8] = biological target: GRIP2_4, Q9C0E4
[9] = biological target: GRIP2_5, Q9C0E4
[10] = biological target: GRIP2_6, Q9C0E4
[11] = biological target: HTRA1, Q92743
[12] = biological target: HTRA2, O43464
[13] = biological target: IL16_3, Q14005
[14] = biological target: IL16_4, Q14005
[15] = biological target: Inadl_9, Q8NI35
[16] = biological target: LDB3, O75112
[17] = biological target: LIMK2, P53671
[18] = biological target: T4, LIN7A, O14910
T4 sequence (O14910 103-200, limits assumed, looked up): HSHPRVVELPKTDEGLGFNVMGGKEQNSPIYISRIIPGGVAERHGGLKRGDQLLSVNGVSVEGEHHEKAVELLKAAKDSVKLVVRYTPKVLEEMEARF

[19] = biological target: LNX1_1, Q8TBB1
[20] = biological target: LNX1_3, Q8TBB1
[21] = biological target: MAGI1_1, Q96QZ7
[22] = biological target: MAGI1_2, Q96QZ7
[23] = biological target: MAST1, Q9Y2H9
[24] = biological target: T5, MPP6, Q9NZW5
T5 sequence (Q9NZW5 125-219, limits assumed, looked up): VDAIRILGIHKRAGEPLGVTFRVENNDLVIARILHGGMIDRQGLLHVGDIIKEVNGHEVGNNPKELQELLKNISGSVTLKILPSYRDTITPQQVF

[25] = biological target: T6, MPP7, Q5T2T1
T6 sequence (Q5T2T1 134-230, limits assumed, looked up): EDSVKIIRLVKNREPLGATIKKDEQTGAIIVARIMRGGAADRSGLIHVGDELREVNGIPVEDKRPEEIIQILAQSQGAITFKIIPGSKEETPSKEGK

[26] = biological target: NHERF4_4, Q86UT5
[27] = biological target: PDZRN4_1, Q6ZMN7
[28] = biological target: T7, RAPGEF6, Q8TEU7
T7 sequence (Q8TEU7 525-625, limits assumed, looked up): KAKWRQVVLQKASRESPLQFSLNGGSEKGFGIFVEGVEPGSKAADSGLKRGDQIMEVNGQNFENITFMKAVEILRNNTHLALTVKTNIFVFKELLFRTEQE

[29] = biological target: T8, SNTG1, Q9NSN8
T8 sequence (Q9NSN8 52-150, limits assumed, looked up): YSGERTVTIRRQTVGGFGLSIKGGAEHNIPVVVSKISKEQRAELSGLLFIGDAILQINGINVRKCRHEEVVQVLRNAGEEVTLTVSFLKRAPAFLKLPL

[30] = plain residues with an end cap or a label only (N-terminal biotin on a linker: ado-ado)
[31] = modified: phospho on T at position -2 from the C-terminal residue

Chain of FRMPD2_1, Q68DX3 (Q68DX3 770-861): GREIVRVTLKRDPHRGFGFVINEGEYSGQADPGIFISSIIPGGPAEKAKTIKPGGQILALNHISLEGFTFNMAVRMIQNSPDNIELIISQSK
Chain of GRIP2_4, Q9C0E4 (Q9C0E4 446-548): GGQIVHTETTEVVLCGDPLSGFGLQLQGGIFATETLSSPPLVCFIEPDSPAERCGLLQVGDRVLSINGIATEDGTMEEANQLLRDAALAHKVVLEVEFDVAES
Chain of HTRA2, O43464 (O43464 355-458): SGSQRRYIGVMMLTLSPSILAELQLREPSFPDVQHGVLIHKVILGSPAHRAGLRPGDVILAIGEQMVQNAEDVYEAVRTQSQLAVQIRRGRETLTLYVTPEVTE
Chain of IL16_4, Q14005 (Q14005 1229-1329): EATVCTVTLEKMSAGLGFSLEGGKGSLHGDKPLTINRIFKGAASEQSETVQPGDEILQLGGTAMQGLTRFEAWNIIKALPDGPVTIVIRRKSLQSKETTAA
Chain of NHERF4_4, Q86UT5 (Q86UT5 464-550): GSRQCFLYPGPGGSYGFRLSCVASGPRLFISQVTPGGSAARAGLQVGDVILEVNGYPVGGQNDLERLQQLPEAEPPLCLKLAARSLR
Chain of Inadl_9, Q8NI35 (Q8NI35 1530-1615): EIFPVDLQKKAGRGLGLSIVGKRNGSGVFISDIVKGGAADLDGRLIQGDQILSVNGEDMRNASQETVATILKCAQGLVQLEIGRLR
Chain of MAGI1_1, Q96QZ7 (Q96QZ7 1-106): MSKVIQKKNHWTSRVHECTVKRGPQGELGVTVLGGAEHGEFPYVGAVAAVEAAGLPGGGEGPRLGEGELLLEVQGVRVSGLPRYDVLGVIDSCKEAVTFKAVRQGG
Chain of GRIP2_5, Q9C0E4 (Q9C0E4 544-642): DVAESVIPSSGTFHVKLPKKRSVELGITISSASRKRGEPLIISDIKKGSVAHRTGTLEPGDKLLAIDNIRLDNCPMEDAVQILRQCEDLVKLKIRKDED
Chain of LIMK2, P53671 (P53671 143-248): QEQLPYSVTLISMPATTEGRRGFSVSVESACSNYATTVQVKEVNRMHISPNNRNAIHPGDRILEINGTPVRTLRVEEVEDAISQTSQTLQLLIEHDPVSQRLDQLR
Chain of MAGI1_2, Q96QZ7 (Q96QZ7 456-580): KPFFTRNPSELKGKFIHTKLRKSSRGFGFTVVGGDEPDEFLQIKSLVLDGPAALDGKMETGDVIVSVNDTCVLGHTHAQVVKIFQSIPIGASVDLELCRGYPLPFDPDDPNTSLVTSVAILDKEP
Chain of HTRA1, Q92743 (Q92743 360-477): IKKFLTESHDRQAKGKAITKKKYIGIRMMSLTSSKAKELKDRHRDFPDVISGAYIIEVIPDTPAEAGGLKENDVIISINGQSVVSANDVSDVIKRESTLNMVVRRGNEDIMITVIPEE
Chain of LNX1_1, Q8TBB1 (Q8TBB1 261-371): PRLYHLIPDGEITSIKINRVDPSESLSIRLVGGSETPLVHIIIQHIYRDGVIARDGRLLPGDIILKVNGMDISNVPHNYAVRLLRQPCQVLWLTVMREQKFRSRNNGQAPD
Chain of DLG1_3, Q12959 (Q12959 457-571): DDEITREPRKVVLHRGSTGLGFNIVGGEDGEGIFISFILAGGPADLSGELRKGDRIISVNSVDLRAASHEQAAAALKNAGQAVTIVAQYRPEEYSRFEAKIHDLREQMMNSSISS
Chain of CASK, O14936 (O14936 487-570): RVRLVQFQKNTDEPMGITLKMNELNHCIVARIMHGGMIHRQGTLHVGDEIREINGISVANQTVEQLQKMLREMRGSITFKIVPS
Chain of PDZRN4_1, Q6ZMN7 (Q6ZMN7 213-318): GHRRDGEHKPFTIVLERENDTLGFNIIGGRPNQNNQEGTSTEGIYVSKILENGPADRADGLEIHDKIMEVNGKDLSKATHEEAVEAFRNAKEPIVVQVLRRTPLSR
Chain of LDB3, O75112 (O75112 1-94): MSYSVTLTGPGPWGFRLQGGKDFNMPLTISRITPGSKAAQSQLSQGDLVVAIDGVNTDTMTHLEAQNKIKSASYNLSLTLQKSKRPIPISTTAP
Chain of LNX1_3, Q8TBB1 (Q8TBB1 500-596): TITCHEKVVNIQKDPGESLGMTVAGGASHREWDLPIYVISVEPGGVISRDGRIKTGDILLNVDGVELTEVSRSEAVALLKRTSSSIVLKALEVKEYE
Chain of FRMPD3, Q5JV73 (Q5JV73 12-100): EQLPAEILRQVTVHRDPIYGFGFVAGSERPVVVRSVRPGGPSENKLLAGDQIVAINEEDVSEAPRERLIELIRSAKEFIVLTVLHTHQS
Chain of IL16_3, Q14005 (Q14005 1107-1207): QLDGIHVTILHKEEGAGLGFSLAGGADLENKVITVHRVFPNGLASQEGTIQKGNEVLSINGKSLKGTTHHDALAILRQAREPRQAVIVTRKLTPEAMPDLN
Chain of GRIP2_6, Q9C0E4 (Q9C0E4 648-740): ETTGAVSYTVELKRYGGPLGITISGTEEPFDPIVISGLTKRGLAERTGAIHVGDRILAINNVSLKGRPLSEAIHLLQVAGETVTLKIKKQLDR
Chain of MAST1, Q9Y2H9 (Q9Y2H9 962-1065): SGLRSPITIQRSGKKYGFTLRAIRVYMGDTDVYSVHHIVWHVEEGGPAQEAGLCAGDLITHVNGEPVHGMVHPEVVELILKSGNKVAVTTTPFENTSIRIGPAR

B1: TMEM178A, Q8NBL3 (peptide)
chain: QLKSGRDSTV
[1]; [30]
  pKd: below the threshold
[2]; [30]
  pKd: 3.54
[3]; [30]
  pKd: 3.85
[4]; [30]
  pKd: 3.66
[5]; [30]
  pKd: below the threshold
[6]; [30]
  pKd: below the threshold
[7]; [30]
  pKd: 3.56
[8]; [30]
  pKd: below the threshold
[9]; [30]
  pKd: below the threshold
[10]; [30]
  pKd: 3.49
[11]; [30]
  pKd: 4.4
[12]; [30]
  pKd: 3.65
[13]; [30]
  pKd: below the threshold
[14]; [30]
  pKd: 3.83
[15]; [30]
  pKd: 3.52
[16]; [30]
  pKd: below the threshold
[17]; [30]
  pKd: below the threshold
[18]; [30]
  pKd: below the threshold
[19]; [30]
  pKd: below the threshold
[20]; [30]
  pKd: below the threshold
[21]; [30]
  pKd: below the threshold
[22]; [30]
  pKd: 3.49
[23]; [30]
  pKd: 4.02
[24]; [30]
  pKd: 3.8
[25]; [30]
  pKd: below the threshold
[26]; [30]
  pKd: 3.74
[27]; [30]
  pKd: 3.53
[28]; [30]
  pKd: below the threshold
[29]; [30]
  pKd: 3.81

B2: HPV33-E6_-2P, P06427 (peptide)
chain: SRSRRRETAL
[1]; [31]
  pKd: below the threshold
[2]; [31]
  pKd: below the threshold
[3]; [31]
  pKd: below the threshold
[4]; [31]
  pKd: below the threshold
[5]; [31]
  pKd: below the threshold
[6]; [31]
  pKd: below the threshold
[7]; [31]
  pKd: below the threshold
[8]; [31]
  pKd: below the threshold
[9]; [31]
  pKd: below the threshold
[10]; [31]
  pKd: below the threshold
[11]; [31]
  pKd: below the threshold
[12]; [31]
  pKd: below the threshold
[13]; [31]
  pKd: below the threshold
[14]; [31]
  pKd: below the threshold
[15]; [31]
  pKd: below the threshold
[16]; [31]
  pKd: below the threshold
[17]; [31]
  pKd: below the threshold
[18]; [31]
  pKd: below the threshold
[19]; [31]
  pKd: below the threshold
[20]; [31]
  pKd: below the threshold
[21]; [31]
  pKd: below the threshold
[22]; [31]
  pKd: below the threshold
[23]; [31]
  pKd: below the threshold
[24]; [31]
  pKd: 3.68
[25]; [31]
  pKd: below the threshold
[26]; [31]
  pKd: below the threshold
[27]; [31]
  pKd: below the threshold
[28]; [31]
  pKd: below the threshold
[29]; [31]
  pKd: below the threshold

B3: SORCS3, Q9UPU3 (peptide)
chain: TKEIPNCTSV
[1]; [30]
  pKd: below the threshold
[2]; [30]
  pKd: below the threshold
[3]; [30]
  pKd: 4.14
[4]; [30]
  pKd: 4
[5]; [30]
  pKd: below the threshold
[6]; [30]
  pKd: below the threshold
[7]; [30]
  pKd: below the threshold
[8]; [30]
  pKd: below the threshold
[9]; [30]
  pKd: below the threshold
[10]; [30]
  pKd: below the threshold
[11]; [30]
  pKd: 3.82
[12]; [30]
  pKd: below the threshold
[13]; [30]
  pKd: below the threshold
[14]; [30]
  pKd: below the threshold
[15]; [30]
  pKd: 3.7
[16]; [30]
  pKd: below the threshold
[17]; [30]
  pKd: below the threshold
[18]; [30]
  pKd: below the threshold
[19]; [30]
  pKd: 3.75
[20]; [30]
  pKd: below the threshold
[21]; [30]
  pKd: below the threshold
[22]; [30]
  pKd: 3.94
[23]; [30]
  pKd: 4.99
[24]; [30]
  pKd: below the threshold
[25]; [30]
  pKd: below the threshold
[26]; [30]
  pKd: 4.05
[27]; [30]
  pKd: 3.94
[28]; [30]
  pKd: below the threshold
[29]; [30]
  pKd: 4

B4: ADRA1D, P25100 (peptide)
chain: DYSNLRETDI
[1]; [30]
  pKd: below the threshold
[2]; [30]
  pKd: below the threshold
[3]; [30]
  pKd: below the threshold
[4]; [30]
  pKd: below the threshold
[5]; [30]
  pKd: below the threshold
[6]; [30]
  pKd: below the threshold
[7]; [30]
  pKd: below the threshold
[8]; [30]
  pKd: below the threshold
[9]; [30]
  pKd: below the threshold
[10]; [30]
  pKd: below the threshold
[11]; [30]
  pKd: below the threshold
[12]; [30]
  pKd: below the threshold
[13]; [30]
  pKd: below the threshold
[14]; [30]
  pKd: below the threshold
[15]; [30]
  pKd: below the threshold
[16]; [30]
  pKd: below the threshold
[17]; [30]
  pKd: below the threshold
[18]; [30]
  pKd: below the threshold
[19]; [30]
  pKd: 4.44
[20]; [30]
  pKd: below the threshold
[21]; [30]
  pKd: below the threshold
[22]; [30]
  pKd: below the threshold
[23]; [30]
  pKd: 4.34
[24]; [30]
  pKd: 3.63
[25]; [30]
  pKd: below the threshold
[26]; [30]
  pKd: below the threshold
[27]; [30]
  pKd: below the threshold
[28]; [30]
  pKd: below the threshold
[29]; [30]
  pKd: 5.55

B5: TNRC6B, Q9UPQ9 (peptide)
chain: DLLGGGSDSI
[1]; [30]
  pKd: below the threshold
[2]; [30]
  pKd: below the threshold
[3]; [30]
  pKd: below the threshold
[4]; [30]
  pKd: below the threshold
[5]; [30]
  pKd: below the threshold
[6]; [30]
  pKd: below the threshold
[7]; [30]
  pKd: below the threshold
[8]; [30]
  pKd: below the threshold
[9]; [30]
  pKd: below the threshold
[10]; [30]
  pKd: below the threshold
[11]; [30]
  pKd: below the threshold
[12]; [30]
  pKd: below the threshold
[13]; [30]
  pKd: below the threshold
[14]; [30]
  pKd: 3.61
[15]; [30]
  pKd: below the threshold
[16]; [30]
  pKd: below the threshold
[17]; [30]
  pKd: below the threshold
[18]; [30]
  pKd: below the threshold
[19]; [30]
  pKd: 3.76
[20]; [30]
  pKd: below the threshold
[21]; [30]
  pKd: below the threshold
[22]; [30]
  pKd: below the threshold
[23]; [30]
  pKd: 3.85
[24]; [30]
  pKd: below the threshold
[25]; [30]
  pKd: below the threshold
[26]; [30]
  pKd: below the threshold
[27]; [30]
  pKd: below the threshold
[28]; [30]
  pKd: below the threshold
[29]; [30]
  pKd: below the threshold
